Columns and labels:
[1] = target: T1, cynomolgus FcγRIIIa receptor (Macaca fascicularis, UniProt Q8SPW2); test: CHO-FcγRIIIa binding assay by flow cytometry (cynomolgus receptor); conditions: compared with SGN-70
T1 construct: expressed in transfected cells; host or cells: CHO
Description: While BLI methodology is used to assess receptor affinity by monitoring binding kinetics, it is primarily set to monitor monovalent binding. To add to BLI data sets, flow cytometry was also performed (FIGS. 2A and 2B).
The CHO-FcγRIIIa binding assay was conducted as follows: • 1. Thaw cells: Cells were thawed on 11 Jun. 2019, and cultured in culture medium for 1 week to recover from freeze-thaw.
• 2. Wash: 60 million cells were washed 1× in PBS in 50-mL tubes. Cells were counted again and resuspended at 2.2×10^6/mL. Then 0.1 mL was pipetted per well • 3. Make 10× dilutions of antibody: The 10× dilutions were prepared (3 mg/mL, 1 mg/mL, 0.3 mg/mL, 0.1 mg/mL, 0.03 mg/mL, 0.01 mg/mL, 0.003 mg/mL, 0.001 mg/mL, and 0.0003 mg/mL in the dilution plate).
• 4. Aspirate: Wash was aspirated in wells and 100 μL of the corresponding antibody dilutions was pipetted with a multichannel pipet. The corresponding concentrations were 300, 100, 30, 10, 3, 1, […] μg/mL in triplicate. The concentrations were decreased vertically down the 96-well round bottom plate. • 5. […] Analyze samples: Samples were analyzed by flow cytometry in high throughput sampler (HTS) mode on the Attune. Median fluorescence intensity (MFI) was graphed (geomean), and equilibrium dissociation constant (KD) for each was calculated in PRIZM

[2] = system: NOMO-1 CD70+ AML cell line; test: CDC with normal human serum, NOMO-1; type: cell-based; conditions: normal human serum not heat inactivated
Description: (§1) AML cell lines positive for CD70 were fluorescently labeled and treated with increasing concentrations of CD70 directed antibodies. Cells were then exposed to human compliment and lysis determined as release of fluorescent dye.
(§2) The following protocol was used to assess CDC activity on AML cell lines: • 1. Cells were incubated with […] anti-CRP monoclonal antibodies mix (anti-hCD46, anti-hCD55, anti-hCD59) for 30 minutes on ice. • 2. Cells were washed and plated (200,000 cells/well) in media containing non-heat-inactivated serum, Sytox Green (Life technology), and antibodies, which were added at the indicated final concentration, for 2 hours at 37° C. • 3. Cell dead was quantified by detecting Sitox Green fluorescent signal on an Envison plate reader (Perkin Elmer) and normalized over positive control (1% Triton X-100 treated cells).

[3] = target: T2, hFcγRIIIa V158 (Homo sapiens, UniProt P08637, F176V); test: BLI binding kinetics to high affinity FcγRIIIa (158V) receptor variant; conditions: versus SGN-70
T2 construct: made in house
T2 sequence (P08637 17-208 F176V): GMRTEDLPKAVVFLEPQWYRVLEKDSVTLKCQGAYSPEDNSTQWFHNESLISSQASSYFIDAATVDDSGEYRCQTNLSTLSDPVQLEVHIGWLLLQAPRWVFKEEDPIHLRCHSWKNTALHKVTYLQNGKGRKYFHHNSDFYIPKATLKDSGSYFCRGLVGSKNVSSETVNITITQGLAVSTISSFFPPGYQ

[4] = system: MOLM-13 CD70+ AML cell line; test: CDC with normal human serum, MOLM-13; type: cell-based; conditions: normal human serum not heat inactivated
Description: as §1, §2

[5] = system: Raji NHL Burkitt Lymphoma model; test: Survival in the Raji NHL Burkitt Lymphoma mouse model; type: in vivo, SCID mice; conditions: for median survival post implant: untreated 20 days
[6] = system: MOLM-13 CD70+ target cells; test: ADCP with monocyte-derived macrophages, MOLM-13; type: cell-based, human; conditions: flow cytometry, antibody dose-dependent
Description: Phagocytosis of fluorescently labeled target cells was determined by flow cytometry. Phagocytosis was measured for the appearance of double-labeled coincident events (fluorescent target cells) and anti-CD11c positivity to identify monocyte/macrophages.
The following protocol was used to assess […] activity on AML cell lines: • 1. Target cells were labeled using the PKH26 Red Fluorescent Cell Linker Mini Kit (Sigma Aldrich) and following the manufacturer's instructions. • 2. Cells (4000 cells/well) were incubated with the indicated test articles for 30 minutes, washed and resuspended in RPMI plus 10% ultra-low IgG FBS. • 3. PBMC-derived macrophages (100,000 cells/well), generated by incubating PBMC-derived monocytes with 500 U/mL (50 ng/mL) GM-CSF for 10-12 days, were added to the target cells and incubated at 37° C. for 2 hours. • 4. Plates were centrifuged and cells resuspended in 100 μl of APC-CD11 antibody (macrophage marker) and incubated on ice for 30 minutes. • 5. Cells were washed, resuspended in PBS and analyzed by flow cytometry to determine the percentage of phagocytosis

[7] = system: CD8 T cells in PBMCs; test: CD8 T cell depletion in PBMCs; type: cell-based, human; conditions: 24 hours
Description: At the end of the experiment cells were stained with Zombie Aqua Viability Dye and total viable Treg naïve and memory CD4 and CD8 T cell numbers were assessed. […] Fucosylated (WT Clone 13 IgG1) and nonfucosylated (SEA Clone 13 IgG1) antibodies targeting TIGIT were used as positive controls (FIG. 4E-4H).

T1 sequence (Q8SPW2 17-254): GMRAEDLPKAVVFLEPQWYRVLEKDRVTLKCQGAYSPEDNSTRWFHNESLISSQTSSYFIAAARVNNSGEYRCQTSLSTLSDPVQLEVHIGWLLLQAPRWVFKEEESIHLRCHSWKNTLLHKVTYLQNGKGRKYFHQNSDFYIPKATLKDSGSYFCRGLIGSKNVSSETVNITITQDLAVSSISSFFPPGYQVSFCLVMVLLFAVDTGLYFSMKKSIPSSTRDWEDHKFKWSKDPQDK

B1: SEA-CD70: humanized, nonfucosylated monoclonal IgG1 antibody targeting CD70 (nonfucosylated h1F6) (antibody, chains of the INN, looked up, V domains shown)
VH: QVQLVQSGAEVKKPGASVKVSCKASGYTFTNYGMNWVRQAPGQGLKWMGWINTYTGEPTYADAFKGRVTMTRDTSISTAYMELSRLRSDDTAVYYCARDYGDYGMDYWGQGTTVTVSS
VL: DIVMTQSPDSLAVSLGERATINCRASKSVSTSGYSFMHWYQQKPGQPPKLLIYLASNLESGVPDRFSGSGSGTDFTLTISSLQAEDVAVYYCQHSREVPWTFGQGTKVEIK
modifications: nonfucosylated
binding affinity to cynomolgus FcγRIIIa on CHO cells [1]: bound with higher affinity than SGN-70 | cell lysis by complement fixation [2]: lysed in an antibody-specific, dose-dependent manner | increase in binding affinity for the FcγRIIIa (158V) receptor [3]: 8 fold | cell lysis by complement fixation [4]: lysed in an antibody-specific, dose-dependent manner | median survival post implant ([5]; 0.3 mg/kg Q4dx4 intraperitoneally): 36.5 days | median survival post implant ([5]; 1 mg/kg Q4dx4 intraperitoneally): 68 days | total number of animals in group ([5]; 1 mg/kg, day 0): 8 | total number of animals in group ([5]; 1 mg/kg, day 23): 8 | total number of animals in group ([5]; 1 mg/kg, day 30): 7 | total number of animals in group ([5]; 1 mg/kg, day 54): 6 | total number of animals in group ([5]; 1 mg/kg, day 61): 5 | total number of animals in group ([5]; 1 mg/kg, day 75): 4 | total number of animals in group ([5]; 1 mg/kg, day 90): 3 | median survival post implant ([5]; 3 mg/kg Q4dx4 intraperitoneally): 69.5 days | total number of animals in group ([5]; 3 mg/kg, day 0): 8 | total number of animals in group ([5]; 3 mg/kg, day 28): 8 | total number of animals in group ([5]; 3 mg/kg, day 33): 7 | total number of animals in group ([5]; 3 mg/kg, day 64): 5 | total number of animals in group ([5]; 3 mg/kg, day 75): 4 | total number of animals in group ([5]; 3 mg/kg, day 90): 3 | survival compared to untreated mice ([5]; 0.3, 1 and 3 mg/kg): increased survival | total number of animals in group ([5]; .3 mg/kg, day 0): 8 | total number of animals in group ([5]; .3 mg/kg, day 5): 8 | total number of animals in group ([5]; .3 mg/kg, day 33): 7 | total number of animals in group ([5]; .3 mg/kg, day 35): 6 | total number of animals in group ([5]; .3 mg/kg, day 36): 5 | total number of animals in group ([5]; .3 mg/kg, day 37): 4 | total number of animals in group ([5]; .3 mg/kg, day 69): 3 | total number of animals in group ([5]; .3 mg/kg, day 90): 2 | phagocytosis of antibody-coated target cells by macrophages [6]: readily phagocytosed target cells | CD8+ cell depletion ([7]; V/V high affinity donor): Neither fucosylated nor nonfucosylated anti-CD70 antibodies depleted CD8+ cells | CD8+ cell depletion ([7]; low affinity (F/F 158) donor): Neither fucosylated nor nonfucosylated anti-CD70 antibodies depleted CD8+ cells

Source: patent US11820827B2, “Methods of treating myelodysplastic syndrome and acute myeloid leukemia with nonfucosylated anti-CD70 antibodies” (Seagen Inc., priority 2019, dated 2023)
